Reference: US20210230599, “STEM-LOOP COMPOSITIONS AND METHODS FOR INHIBITING INTERLEUKIN-8” (VITRISA THERAPEUTICS, INC., published 2021)
Positions count from the first letter of the chain named.

Tests used:
[1] = target: T1, Interleukin-8 (IL8, CXCL8), C-terminal His-tagged (Homo sapiens, UniProt P10145 SEQ:1-72); assay: TR-FRET, 5 nM IL8, protein-limited; bead flow 18 nM; settings: tags: C-terminal 6xHis (Sino Biological); label: Alexa Fluor 647
Method: (§1) Aptamers were synthesized and labeled with ALEXA FLUOR® 647, and binding to IL8 was quantified by Time-Resolved Fluorescence Resonance Energy Transfer (TR-FRET). Briefly, 2-fold dilutions of thermally equilibrated aptamers were made in TR-FRET Buffer (50 mM MOPS, pH 7.4, 125 mM NaCl, 5 mM KCl, 50 μM CHAPS, 0.1 mg/mL BSA, 1 mM CaCl₂ and 1 mM MgCl₂). […] of aptamer or control solution was added to 10 μL of 15 nM C-His-tagged-IL8 (Sino Biological) in a black wall half-area plate (Corning). In the same plate, 10 μl of aptamer solution was added to 10 μl of TR-FRET buffer alone to use for background subtraction. 10 μl of 15 nM anti-His-Eu (Perkin Elmer) was added to each well, the plate was covered with a plate seal and subsequently incubated in the dark for 1 hour at room temperature. The plate was read on a Biotek CYTATION™ 5 plate reader. Samples were excited at 330 nm and fluorescent values were collected at 665 nm. […] Apparent Kd values obtained for the fits are calculated as the concentration of half-maximal binding and shown in Table 10, and fit curves as FIG. 6. […] It is also possible that differences may arise due to TR-FRET being a homogenous solution binding assay, while bead binding has immobilized ligand and is non-homogenous, so bound aptamers may dissociate during analysis resulting in higher calculated Kd values.

[2] = target: T1, Interleukin-8 (IL8, CXCL8), C-terminal …; assay: TR-FRET, 1 mM Ca, 1 mM Mg, room temperature; settings: tags: C-terminal 6xHis (Sino Biological); label: Alexa Fluor 647
Method: as §1

[3] = target: T1, Interleukin-8 (IL8, CXCL8), C-terminal …; assay: flow; appreciable binding, bead-immobilized IL8, 10 and 100 nM aptamer; settings: tags: C-terminal 6xHis (Sino Biological); label: Alexa Fluor 647
Method: (§2) Chemically synthesized aptamers (Table 8) were labeled with ALEXA FLUOR® 647 and were used to test binding to IL8 in a bead based assay using flow cytometry. In brief, fluorescently labeled aptamers were heated at 90° C. for 3 minutes in SB1T and were allowed to cool at room temperature for 5 minutes, after which they were incubated with c-his-IL8, immobilized on DYNABEADS® His-Tag Isolation and Pulldown beads in SB1T buffer containing 0.1% BSA, 1 μg/μl ssDNA and 1 μg/μl heparin sulphate at two different aptamer concentrations: 10 nM and 100 nM. Following incubation for 30 minutes at 37° C., the beads were washed three times with SB1T, re-suspended in SB1T buffer and analyzed by flow cytometry. […] Negligible or complete lack of binding seen in cases of some aptamers (e.g., Aptamers 4, 9, 10, and 16) could be due to the removal of the constant regions. No binding was observed when similar experiments were performed in the absence of protein (data not shown).

[4] = target: T1, Interleukin-8 (IL8, CXCL8), C-terminal …; assay: TR-FRET, 5 nM IL8, protein-limited; settings: tags: C-terminal 6xHis (Sino Biological); label: Alexa Fluor 647
[5] = target: T1, Interleukin-8 (IL8, CXCL8), C-terminal …; assay: competition; competition TR-FRET; S3 mutant; settings: tags: C-terminal 6xHis (Sino Biological)
Method: (§3) To better understand the sequence requirements and to confirm the stem structures of members of the Aptamer 3 family as determined from sequence covariation analysis from both the primary and secondary (degenerate) selections, a series of variants which included mutations and deletions to the predicted stems were synthesized and screened (Table 24). Activity of each of these variants were tested using a time resolved competition TR-FRET assay in which the labeled parent Aptamer 3 was competed with increasing concentrations of unlabeled variants for binding to IL8 (FIG. 14). Briefly, 2-fold dilutions of thermally equilibrated aptamers were made in TR-FRET Buffer (50 mM MOPS, pH 7.4, 125 mM NaCl, 5 mM KCl, 50 μM CHAPS, 0.1 mg/mL BSA, 1 mM CaCl₂, and 1 mM MgCl₂). 5 μL of aptamer or control solution was added to 5 μl mix of 10 nM C-terminal His-tagged-IL8, 60 nM ALEXA FLUOR® 647-labeled Aptamer, and 5 nM anti-His-Eu (Perkin Elmer) in a black wall low volume 384 well plate (Greiner). For control, 5 μl of 1000-fold excess of unlabeled parent aptamer or 5 μl TR-FRET buffer alone was added to the mix of ALEXA FLUOR® 647-labeled aptamer, His-IL8, and anti-His-Eu. The plate was covered with a plate seal and subsequently incubated in the dark for 1 hour at room temperature. The plate was read on a Biotek CYTATION™ 5 plate reader. […]

[6] = target: T1, Interleukin-8 (IL8, CXCL8), C-terminal …; assay: competition; competition TR-FRET; S3 extended; settings: tags: C-terminal 6xHis (Sino Biological)
Method: as §3

[7] = target: T1, Interleukin-8 (IL8, CXCL8), C-terminal …; assay: TR-FRET, 5 nM IL8, protein-limited; bead flow 13 nM; settings: tags: C-terminal 6xHis (Sino Biological); label: Alexa Fluor 647
Method: as §1

[8] = target: T1, Interleukin-8 (IL8, CXCL8), C-terminal …; assay: flow; bead-immobilized IL8, 37 C; settings: tags: C-terminal 6xHis (Sino Biological); label: Alexa Fluor 647
Method: as §2
Flow cytometry was used to measure the apparent binding affinity for Aptamer 2, Aptamer 3, Aptamer 5, Aptamer 6, Aptamer 8, Aptamer 11, Aptamer 12, Aptamer 13, Aptamer 14, Aptamer 20, Aptamer 22, Aptamer 23, and Aptamer 25 using bead immobilized c-his-IL8. […] Following incubation for 30 minutes at 37° C., the beads were washed and fluorescence was measured by flow cytometry. […]

[9] = target: T1, Interleukin-8 (IL8, CXCL8), C-terminal …; assay: TR-FRET, 500 pM IL8; Table 10 gives 2 nM; bead flow 13 nM; settings: tags: C-terminal 6xHis (Sino Biological); label: Alexa Fluor 647; stem-loop (3 stems, 4 loops)
Method: Under these assay conditions, the ability to measure the affinity accurately is limited by the input IL8 protein concentration, and the apparent Kd under these protein-limiting conditions was determined to be 8 nM.

[10] = target: T1, Interleukin-8 (IL8, CXCL8), C-terminal …; assay: competition; competition TR-FRET; S2 disrupted; settings: tags: C-terminal 6xHis (Sino Biological)
Method: as §3

[11] = target: T1, Interleukin-8 (IL8, CXCL8), C-terminal …; assay: competition; competition TR-FRET; settings: tags: C-terminal 6xHis (Sino Biological); stem-loop
[12] = target: T1, Interleukin-8 (IL8, CXCL8), C-terminal …; assay: TR-FRET; GAG-site binder, displaced by heparan sulfate IC50 9 uM; settings: tags: C-terminal 6xHis (Sino Biological); label: Alexa Fluor 647
Excerpt: Differences between these TR-FRET values (Table 10) and those from the bead binding assay (Table 9) may be due to a different limiting concentration of IL8. […] It is also possible that differences may arise due to TR-FRET being a homogenous solution binding assay, while bead binding has immobilized ligand and is non-homogenous, so bound aptamers may dissociate during analysis resulting in higher calculated Kd values.
Aptamer 1 (C6NH₂-[…]-idT, where C and U are 2′F, A and G are 2′OH; C6NH₂ is a hexylamino linker; and idT is a 3′ inverted deoxythymidine residue (SEQ ID NO: 75 with modifications)) was used as a positive control for an aptamer that binds to the GAG binding site. Aptamers 1, 3, 6, 8 and 11 were labeled with ALEXAFLUOR® 647 as described in Example 3. […] Briefly, 2-fold dilutions of heparan sulfate (Sigma Aldrich) were made in TR-FRET Buffer (50 mM MOPS, pH 7.4, 125 mM NaCl, 5 mM KCl, 50 μM CHAPS, 0.1 mg/mL BSA, 1 mM CaCl₂ and 1 mM MgCl₂). […] heparan sulfate or control solution were added to […] a mixture of 10 nM C-His-tagged-IL8 (Sino Biological), 5 nM anti-His-Eu (Perkin Elmer), and 30 nM AlexaFluor® 647-labeled aptamer in TR-FRET in a black low volume 384-well plate (Greiner). The plate was covered with a plate seal and subsequently incubated in the dark for 1 hour at room temperature. The plate was read on a Biotek CYTATION™ 5 plate reader. […]

B1: Aptamer 6 (ssRNA)
RNA: UCAGGCUGAAAAGUGAGCUAUAAUGUCCUGAUUGAU
modifications: 2'-F G, 2'-OMe A/C/U, 5' C6NH2, 3' idT
Kd [1]: 2 nM

B2: Aptamer 19 (ssRNA)
RNA: UGUCGCCCUACGUAAACCGCUAUUUGCGACUGCGGU
modifications: 2'-F G, 2'-OMe A/C/U, 5' C6NH2, 3' idT
Kd [2]: 4 nM

B3: Aptamer 25 (ssRNA)
RNA: UCAUGGGUUGCCAACCGGCCGUGUAUGUACGUACAU
modifications: 2'-F G, 2'-OMe A/C/U, 5' C6NH2, 3' idT
binding result [3]: binds

B4: Aptamer 7 (ssRNA)
RNA: UUAUUGCGGCCCGAUUUACCGAAUUUGCCGUCCGGU
modifications: 2'-F G, 2'-OMe A/C/U, 5' C6NH2, 3' idT
Kd [4]: 2 nM

B5: Aptamer 89 (ssRNA)
RNA: GGCGACGGUAGACUACGGGUAGAGUGACCGCGCC
modifications: 2'-F G, 2'-OMe A/C/U, 5' C6NH2, 3' idT
binding signal [5]: > 10 fold worse than Aptamer 3

B6: Aptamer 90 (ssRNA)
RNA: B5 RNA with C13U, U14C, A23G
modifications: 2'-F G, 2'-OMe A/C/U, 5' C6NH2, 3' idT
binding signal [6]: > 10 fold worse than Aptamer 3

B7: Aptamer 11 (ssRNA)
RNA: UCCGGUUGCUGAGAUGUGAGAUUAAUGUCCACCGUU
modifications: 2'-F G, 2'-OMe A/C/U, 5' C6NH2, 3' idT
Kd [7]: 2 nM

B8: Aptamer 20 (ssRNA)
RNA: UGACUGCGGUCGCAAGUUACGGAUUUGCCGCCCCGU
modifications: 2'-F G, 2'-OMe A/C/U, 5' C6NH2, 3' idT
Kd [8]: 15 nM

B9: Aptamer 3 (ssRNA)
RNA: UGAUGACGGUAGAUUACGGGUAGAGUGACCGCAUCU
modifications: 2'-F G, 2'-OMe A/C/U, 5' C6NH2, 3' idT
Kd [9]: 0.214 nM

B10: Aptamer 188 (ssRNA)
RNA: B9 RNA with G8C, G9C
modifications: 2'-F G, 2'-OMe A/C/U, 5' C6NH2, 3' idT
binding signal [10]: > 10 fold worse than Aptamer 3

B11: Aptamer 42 (ssRNA)
RNA: GCGACGGUAGAUUACGGGUAGAGUGACCGCGC
modifications: 2'-F G, 2'-OMe A/C/U, 5' C6NH2, 3' idT
binding signal [11]: ~1.4 fold worse than Aptamer 3

B12: Aptamer 1 (ssRNA)
RNA: GGGGGCUUAUCAUUCCAUUUAGUGUUAUGAUAACC
modifications: 2'-F C and U, 2'-OH A and G, 5' C6NH2, 3' idT
Kd [12]: 3 nM
